Experiments:
Bpur [1] = target: T1, Bpur (Borrelia burgdorferi B31, UniProt O51076 1-122); experiment: EMSA; simultaneous with Bio-2; EMSA: 50 mM Tris pH 7.5, 25 mM KCl, 1 mM MgCl2, 100 nM DTT, 10% glycerol, 0.01% Tween 20, 0.1% PMSF; temperature not stated; RNA/ssDNA probes preheated at 56 C, RiboGuard with RNA; details: protein: recombinant; tags: His tag (pET101, nickel purification); chain copies: 2; label: 5' biotin
T1 sequence: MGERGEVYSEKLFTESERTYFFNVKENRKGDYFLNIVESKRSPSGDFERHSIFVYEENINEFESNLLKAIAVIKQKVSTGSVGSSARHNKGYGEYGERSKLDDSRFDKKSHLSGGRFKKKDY

Bpur [2] = target: T1, Bpur; experiment: EMSA; EMSA: 50 mM Tris pH 7.5, 25 mM KCl, 1 mM MgCl2, 100 nM DTT, 10% glycerol, 0.01% Tween 20, 0.1% PMSF; temperature not stated; RNA/ssDNA probes preheated at 56 C, RiboGuard with RNA; details: protein: recombinant, tags: His tag (pET101, nickel purification), chain copies: 2
Bpur [3] = target: T1, Bpur; experiment: EMSA; 50-500 nM Bpur; EMSA: 50 mM Tris pH 7.5, 25 mM KCl, 1 mM MgCl2, 100 nM DTT, 10% glycerol, 0.01% Tween 20, 0.1% PMSF; temperature not stated; RNA/ssDNA probes preheated at 56 C, RiboGuard with RNA; details: protein: recombinant; tags: His tag (pET101, nickel purification); chain copies: 2; label: 5' biotin
Bpur [4] = target: T1, Bpur; experiment: EMSA; simultaneous with Bio-3; EMSA: 50 mM Tris pH 7.5, 25 mM KCl, 1 mM MgCl2, 100 nM DTT, 10% glycerol, 0.01% Tween 20, 0.1% PMSF; temperature not stated; RNA/ssDNA probes preheated at 56 C, RiboGuard with RNA; details: protein: recombinant; tags: His tag (pET101, nickel purification); chain copies: 2; label: 5' biotin
Bpur [5] = target: T1, Bpur; experiment: competition; 100-fold excess vs Bio-1; EMSA: 50 mM Tris pH 7.5, 25 mM KCl, 1 mM MgCl2, 100 nM DTT, 10% glycerol, 0.01% Tween 20, 0.1% PMSF; temperature not stated; RNA/ssDNA probes preheated at 56 C, RiboGuard with RNA; details: protein: recombinant; tags: His tag (pET101, nickel purification); chain copies: 2

B1: Bio-3 (dsDNA)
DNA 1: GGAGAGATTTTGGGGAGTTGTTTAAAATTACATTTGCGTTTTGTTAAAATGTAAC
DNA 2: GTTACATTTTAACAAAACGCAAATGTAATTTTAAACAACTCCCCAAAATCTCTCC
binding result (Bpur [1]): binds

B2: Bio-sense-RNA (ssRNA)
RNA: AAUGGAGAGAUUUUGGGGAGUUGUUUAAAAUUACAUUUGCGUUUUGUUAAAAUG
Kd (Bpur [2]; label: 5' biotin): 13 nM

B3: Bio-1 (dsDNA)
DNA 1: GAGTAGTGCATTTGCAATGGAGAGATTTTGGGGAGTTGTTTAAAATTACATTTGCGTTTTGTTAAAATGTAACAGCTGAATGTAACAAAATTATATATTTAAATCTTGAAATA
DNA 2: TATTTCAAGATTTAAATATATAATTTTGTTACATTCAGCTGTTACATTTTAACAAAACGCAAATGTAATTTTAAACAACTCCCCAAAATCTCTCCATTGCAAATGCACTACTC
binding result (Bpur [3]): binds

B4: Bio-2 (dsDNA)
DNA 1: TAAAATTACATTTGCGTTTTGTTAAAATGTAACAGCTGAATGTAAC
DNA 2: GTTACATTCAGCTGTTACATTTTAACAAAACGCAAATGTAATTTTA
binding result (Bpur [4]): no binding

B5: Bio-dsDNA (dsDNA)
DNA 1: AATGGAGAGATTTTGGGGAGTTGTTTAAAATTACATTTGCGTTTTGTTAAAATG
DNA 2: CATTTTAACAAAACGCAAATGTAATTTTAAACAACTCCCCAAAATCTCTCCATT
Kd (Bpur [2]; label: 5' biotin (one strand), blunt): 130 nM

B6: Bio-sense-ssDNA (ssDNA)
DNA: AATGGAGAGATTTTGGGGAGTTGTTTAAAATTACATTTGCGTTTTGTTAAAATG
Kd (Bpur [2]; label: 5' biotin): 390 nM

B7: competitor C (dsDNA)
DNA 1: GTAGTGCATTTGCAATGGAGAGATTTTGGGGAGTTGTTTAAAATTAC
DNA 2: GTAATTTTAAACAACTCCCCAAAATCTCTCCATTGCAAATGCACTAC
binding result (Bpur [5]): binds

Reference: article PMC3764826, “Bpur, the Lyme Disease Spirochete's PUR Domain Protein”
